We go through 34 molecules from PMC12416549 (2024).

T1: TNFR1 (Homo sapiens, UniProt P19438)
T1 chain: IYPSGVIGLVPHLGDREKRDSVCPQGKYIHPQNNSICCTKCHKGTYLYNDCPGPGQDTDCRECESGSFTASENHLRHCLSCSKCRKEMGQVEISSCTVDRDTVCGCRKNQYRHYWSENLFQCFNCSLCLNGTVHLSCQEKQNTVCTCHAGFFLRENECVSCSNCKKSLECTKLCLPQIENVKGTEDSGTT

B1: A105R (designed binder)
chain: MTLQELLREEALRRAEAEAFRYALELLAEKFPEQKEYLLDLAEEIESQIRSLSGVDVEDVRKFLDKEWAWVKELLAEHPAELAEVEAARAARLAELRAEVEAKVRA
B2: K35Q (designed binder)
chain: MTLQELLREEALRRAEAEAFRYALELLAEKFPEQQEYLLDLAEEIESQIRSLSGVDVEDVRKFLDKEWAWVKELLAEHPAELAEVEAARAARLAELRAEVEAKVAA
B3: E67C (designed binder)
chain: MTLQELLREEALRRAEAEAFRYALELLAEKFPEQKEYLLDLAEEIESQIRSLSGVDVEDVRKFLDKCWAWVKELLAEHPAELAEVEAARAARLAELRAEVEAKVAA
B4: L3H (designed binder)
chain: MTHQELLREEALRRAEAEAFRYALELLAEKFPEQKEYLLDLAEEIESQIRSLSGVDVEDVRKFLDKEWAWVKELLAEHPAELAEVEAARAARLAELRAEVEAKVAA
B5: E44L (designed binder)
chain: MTLQELLREEALRRAEAEAFRYALELLAEKFPEQKEYLLDLAELIESQIRSLSGVDVEDVRKFLDKEWAWVKELLAEHPAELAEVEAARAARLAELRAEVEAKVAA
B6: A90K (designed binder)
chain: MTLQELLREEALRRAEAEAFRYALELLAEKFPEQKEYLLDLAEEIESQIRSLSGVDVEDVRKFLDKEWAWVKELLAEHPAELAEVEAARKARLAELRAEVEAKVAA
B7: E86M (designed binder)
chain: MTLQELLREEALRRAEAEAFRYALELLAEKFPEQKEYLLDLAEEIESQIRSLSGVDVEDVRKFLDKEWAWVKELLAEHPAELAEVMAARAARLAELRAEVEAKVAA
B8: Y22I (designed binder)
chain: MTLQELLREEALRRAEAEAFRIALELLAEKFPEQKEYLLDLAEEIESQIRSLSGVDVEDVRKFLDKEWAWVKELLAEHPAELAEVEAARAARLAELRAEVEAKVAA
B9: G54N (designed binder)
chain: MTLQELLREEALRRAEAEAFRYALELLAEKFPEQKEYLLDLAEEIESQIRSLSNVDVEDVRKFLDKEWAWVKELLAEHPAELAEVEAARAARLAELRAEVEAKVAA
B10: H78W (designed binder)
chain: MTLQELLREEALRRAEAEAFRYALELLAEKFPEQKEYLLDLAEEIESQIRSLSGVDVEDVRKFLDKEWAWVKELLAEWPAELAEVEAARAARLAELRAEVEAKVAA
B11: E33K (designed binder)
chain: MTLQELLREEALRRAEAEAFRYALELLAEKFPKQKEYLLDLAEEIESQIRSLSGVDVEDVRKFLDKEWAWVKELLAEHPAELAEVEAARAARLAELRAEVEAKVAA
B12: A87R (designed binder)
chain: MTLQELLREEALRRAEAEAFRYALELLAEKFPEQKEYLLDLAEEIESQIRSLSGVDVEDVRKFLDKEWAWVKELLAEHPAELAEVERARAARLAELRAEVEAKVAA
B13: L74E (designed binder)
chain: MTLQELLREEALRRAEAEAFRYALELLAEKFPEQKEYLLDLAEEIESQIRSLSGVDVEDVRKFLDKEWAWVKEELAEHPAELAEVEAARAARLAELRAEVEAKVAA
B14: E33Y (designed binder)
chain: MTLQELLREEALRRAEAEAFRYALELLAEKFPYQKEYLLDLAEEIESQIRSLSGVDVEDVRKFLDKEWAWVKELLAEHPAELAEVEAARAARLAELRAEVEAKVAA
B15: A17P (designed binder)
chain: MTLQELLREEALRRAEPEAFRYALELLAEKFPEQKEYLLDLAEEIESQIRSLSGVDVEDVRKFLDKEWAWVKELLAEHPAELAEVEAARAARLAELRAEVEAKVAA
B16: A15K (designed binder)
chain: MTLQELLREEALRRKEAEAFRYALELLAEKFPEQKEYLLDLAEEIESQIRSLSGVDVEDVRKFLDKEWAWVKELLAEHPAELAEVEAARAARLAELRAEVEAKVAA
B17: A80N (designed binder)
chain: MTLQELLREEALRRAEAEAFRYALELLAEKFPEQKEYLLDLAEEIESQIRSLSGVDVEDVRKFLDKEWAWVKELLAEHPNELAEVEAARAARLAELRAEVEAKVAA
B18: V55C (designed binder)
chain: MTLQELLREEALRRAEAEAFRYALELLAEKFPEQKEYLLDLAEEIESQIRSLSGCDVEDVRKFLDKEWAWVKELLAEHPAELAEVEAARAARLAELRAEVEAKVAA
B19: A94I (designed binder)
chain: MTLQELLREEALRRAEAEAFRYALELLAEKFPEQKEYLLDLAEEIESQIRSLSGVDVEDVRKFLDKEWAWVKELLAEHPAELAEVEAARAARLIELRAEVEAKVAA
B20: S53D (designed binder)
chain: MTLQELLREEALRRAEAEAFRYALELLAEKFPEQKEYLLDLAEEIESQIRSLDGVDVEDVRKFLDKEWAWVKELLAEHPAELAEVEAARAARLAELRAEVEAKVAA
B21: L52I (designed binder)
chain: MTLQELLREEALRRAEAEAFRYALELLAEKFPEQKEYLLDLAEEIESQIRSISGVDVEDVRKFLDKEWAWVKELLAEHPAELAEVEAARAARLAELRAEVEAKVAA
B22: L82D (designed binder)
chain: MTLQELLREEALRRAEAEAFRYALELLAEKFPEQKEYLLDLAEEIESQIRSLSGVDVEDVRKFLDKEWAWVKELLAEHPAEDAEVEAARAARLAELRAEVEAKVAA
B23: Y37F (designed binder)
chain: MTLQELLREEALRRAEAEAFRYALELLAEKFPEQKEFLLDLAEEIESQIRSLSGVDVEDVRKFLDKEWAWVKELLAEHPAELAEVEAARAARLAELRAEVEAKVAA
B24: K66M (designed binder)
chain: MTLQELLREEALRRAEAEAFRYALELLAEKFPEQKEYLLDLAEEIESQIRSLSGVDVEDVRKFLDMEWAWVKELLAEHPAELAEVEAARAARLAELRAEVEAKVAA
B25: Q48I (designed binder)
chain: MTLQELLREEALRRAEAEAFRYALELLAEKFPEQKEYLLDLAEEIESIIRSLSGVDVEDVRKFLDKEWAWVKELLAEHPAELAEVEAARAARLAELRAEVEAKVAA
B26: R89L (designed binder)
chain: MTLQELLREEALRRAEAEAFRYALELLAEKFPEQKEYLLDLAEEIESQIRSLSGVDVEDVRKFLDKEWAWVKELLAEHPAELAEVEAALAARLAELRAEVEAKVAA
B27: Q34E (designed binder)
chain: MTLQELLREEALRRAEAEAFRYALELLAEKFPEEKEYLLDLAEEIESQIRSLSGVDVEDVRKFLDKEWAWVKELLAEHPAELAEVEAARAARLAELRAEVEAKVAA
B28: E5M (designed binder)
chain: MTLQMLLREEALRRAEAEAFRYALELLAEKFPEQKEYLLDLAEEIESQIRSLSGVDVEDVRKFLDKEWAWVKELLAEHPAELAEVEAARAARLAELRAEVEAKVAA
B29: R61C (designed binder)
chain: MTLQELLREEALRRAEAEAFRYALELLAEKFPEQKEYLLDLAEEIESQIRSLSGVDVEDVCKFLDKEWAWVKELLAEHPAELAEVEAARAARLAELRAEVEAKVAA
B30: G54K (designed binder)
chain: MTLQELLREEALRRAEAEAFRYALELLAEKFPEQKEYLLDLAEEIESQIRSLSKVDVEDVRKFLDKEWAWVKELLAEHPAELAEVEAARAARLAELRAEVEAKVAA
B31: A83E (designed binder)
chain: MTLQELLREEALRRAEAEAFRYALELLAEKFPEQKEYLLDLAEEIESQIRSLSGVDVEDVRKFLDKEWAWVKELLAEHPAELEEVEAARAARLAELRAEVEAKVAA
B32: E58V (designed binder)
chain: MTLQELLREEALRRAEAEAFRYALELLAEKFPEQKEYLLDLAEEIESQIRSLSGVDVVDVRKFLDKEWAWVKELLAEHPAELAEVEAARAARLAELRAEVEAKVAA
B33: R14T (designed binder)
chain: MTLQELLREEALRTAEAEAFRYALELLAEKFPEQKEYLLDLAEEIESQIRSLSGVDVEDVRKFLDKEWAWVKELLAEHPAELAEVEAARAARLAELRAEVEAKVAA
B34: E81Y (designed binder)
chain: MTLQELLREEALRRAEAEAFRYALELLAEKFPEQKEYLLDLAEEIESQIRSLSGVDVEDVRKFLDKEWAWVKELLAEHPAYLAEVEAARAARLAELRAEVEAKVAA

This experiment addresses T1, TNFR1. Nature of the experiment: yeast display SC50.
B1: the “apparent Kd (screen)” value is 0.718 nM.
B2: the “apparent Kd (screen)” value came to 0.718 nM.
On to B3, for which the “apparent Kd (screen)” value is 5.84 nM.
Turning to B4, the “apparent Kd (screen)” value stood at 2.25 nM.
Turning to B5, the “apparent Kd (screen)” value was found to be 13.8 nM.
Consider B6, for which the “apparent Kd (screen)” value amounted to 0.446 nM.
For the molecule B7, the “apparent Kd (screen)” value was found to be 0.79 nM.
With B8, the “apparent Kd (screen)” value was found to be 0.956 nM.
For the molecule B9, the “apparent Kd (screen)” value amounted to 1.4 nM.
For B10, the “apparent Kd (screen)” value came to 0.446 nM.
B11: the “apparent Kd (screen)” value came out at 1.05 nM.
Consider B12, for which the “apparent Kd (screen)” value amounted to 0.446 nM.
For the molecule B13, the “apparent Kd (screen)” value came out at 2.48 nM.
The result for B14 reads 0.539 nM; that for B15, 0.718 nM.
For the molecule B16, the “apparent Kd (screen)” value is 0.49 nM.
Regarding B17, the “apparent Kd (screen)” value was determined as 1.27 nM.
For the molecule B18, the “apparent Kd (screen)” value was 0.79 nM.
For the molecule B19, the “apparent Kd (screen)” value is 0.956 nM.
For the molecule B20, the “apparent Kd (screen)” value was determined as 8.56 nM.
As for B21, the “apparent Kd (screen)” value was 0.539 nM.
Consider B22, for which the “apparent Kd (screen)” value worked out at 5.84 nM.
Regarding B23, the “apparent Kd (screen)” value was 2.48 nM.
The same measure for B24: 0.593 nM.
As for B25, the “apparent Kd (screen)” value was 5.84 nM.
The result for B26 reads 0.79 nM; that for B27, 0.653 nM.
Regarding B28, the “apparent Kd (screen)” value is 0.593 nM.
For the molecule B29, the “apparent Kd (screen)” value is 0.956 nM.
On to B30, for which the “apparent Kd (screen)” value was found to be 12.5 nM.
Regarding B31, the “apparent Kd (screen)” value was determined as 0.593 nM.
As to B32, the “apparent Kd (screen)” value was 0.49 nM.
For the molecule B33, the “apparent Kd (screen)” value is 0.49 nM.
The same measure for B34: 0.446 nM.
